From article PMC6386680 (Proceedings of the National Academy of Sciences of the …, 2019)

Assays:
[1] = target: Gal-3 CRD (trGal-3) (Homo sapiens, UniProt P17931); assay: hydrogen-deuterium exchange mass spectrometry; format: binding; conditions: absence vs presence of lactose; canonical site
[2] = target: Gal-3–8S–Gal-1 (covalently connected heterodimer, Gal-3 CRD, 33-aa Gal-8 linker, Gal-1 CRD) (human); assay: SEC
[3] = target: Gal-3–8S–Gal-1 (covalently connected heterodimer, Gal-3 CRD, 33-aa Gal-8 linker, Gal-1 CRD) (human); assay: SAXS

Chain of Gal-3 CRD (trGal-3) (P17931 108-250 limits assumed): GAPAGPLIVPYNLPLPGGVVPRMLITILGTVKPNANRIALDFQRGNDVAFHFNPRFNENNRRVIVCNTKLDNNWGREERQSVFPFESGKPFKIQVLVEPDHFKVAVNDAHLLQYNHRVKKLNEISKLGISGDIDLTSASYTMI

Molecule	hydrogen-deuterium exchange mass spectrometry [1]	stoichiometry N [2]	stoichiometry N [3]
OC[C@H]1O[C@@H](O[C@H]2[C@H](O)[C@@H](O)C(O)O[C@@H]2CO)[C@H](O)[C@@H](O)[C@H]1O (stereo partly drawn) [Lac]	significantly decreased deuterium uptake was found in the region of the canonical binding site		
Gal-3–8S–Gal-1 (covalently connected heterodimer, Gal-3 CRD, 33-aa Gal-8 linker, Gal-1 CRD)		2	2
